# Article PMC8476742, “Mapping Potential Determinants of Peroxidative Activity in an Evolved Fungal Peroxygenase from Agrocybe aegerita” (Frontiers in Bioengineering and Biotechnology, 2021)
# Legend:
# Assay in all cases: purified protein
# Format in all cases: biochemical, Cyclocybe aegerita
# purified protein [1] = substrate: CCn1c(=NN=c2sc3cc(S(=O)(=O)O)ccc3n2CC)sc2cc(S(=O)(=O)O)ccc21
# purified protein [2] = substrate: O=[N+]([O-])c1ccc2c(c1)OCO2; conditions: 1 mM H2O2, 100 mM potassium phosphate pH 7.0, 15% acetonitrile
# purified protein [3] = substrate: COc1ccc(CO)cc1OC; conditions: 2 mM H2O2, 100 mM potassium phosphate pH 7.0, clone 23
# [4] = 2 mM H2O2, 100 mM sodium phosphate-citrate pH 3.0, clone 8
# [5] = 2 mM H2O2, 100 mM sodium phosphate-citrate pH 3.0, clone 23
Protein,Km (purified protein [1]; [4]),kcat (purified protein [1]; [4]),kcat/Km (purified protein [1]; [4]),Km (purified protein [2]; clone 8),kcat (purified protein [2]; clone 8),kcat/Km (purified protein [2]; clone 8),Km (purified protein [3]),kcat (purified protein [3]),kcat/Km (purified protein [3]),Km (purified protein [1]; [5]),kcat (purified protein [1]; [5]),kcat/Km (purified protein [1]; [5]),Km (purified protein [2]; clone 23),kcat (purified protein [2]; clone 23),kcat/Km (purified protein [2]; clone 23)
"PaDa-I (Cyclocybe aegerita; A359H/A360H/F354L/G361I/I291V/L110F/V100A/V118I) (protein, evolved secretion variant, mature secreted enzyme; signal peptide mutations F12Y, A14V, R15G, A21D; expressed in Saccharomyces cerevisiae BJ5464, purified by ion exchange, no tag mentioned; heme-thiolate) EPGLPPGPLENSSAKLVNDEAHPWKPLRPGDIRGPCPGLNTLASHGYLPRNGVATPAQIINAVQEGFNFDNQAAIFATYAAHLVDGNLITDLLSIGRKTRLTGPDPPPPASVGGLNEHGTFEGDASMTRGDAFFGNNHDFNETLFEQLVDYSNRFGGGKYNLTVAGELRFKRIQDSIATNPNFSFVDFRFFTAYGETTFPANLFVDGRRDDGQLDMDAARSFFQFSRMPDDFFRAPSPRSGTGVEVVVQAHPMQPGRNVGKINSYTVDPTSSDFSTPCLMYEKFVNITVKSLYPNPTVQLRKALNTNLDFLFQGVHHICTQVFPYGRD",14 ± 2.4 µM,239 ± 13 s⁻¹,1.68e+07 ± 3.03e+06 M⁻¹ s⁻¹,437 ± 53 µM,368 ± 19 s⁻¹,842000 ± 111000 M⁻¹ s⁻¹,–,–,–,–,–,–,–,–,–
"PaDa-I (Cyclocybe aegerita; A359S/A360N/F354L/G361L/I291V/L110F/V100A/V118I/V358L) (protein, evolved secretion variant, mature secreted enzyme; signal peptide mutations F12Y, A14V, R15G, A21D; expressed in Saccharomyces cerevisiae BJ5464, purified by ion exchange, no tag mentioned; heme-thiolate) EPGLPPGPLENSSAKLVNDEAHPWKPLRPGDIRGPCPGLNTLASHGYLPRNGVATPAQIINAVQEGFNFDNQAAIFATYAAHLVDGNLITDLLSIGRKTRLTGPDPPPPASVGGLNEHGTFEGDASMTRGDAFFGNNHDFNETLFEQLVDYSNRFGGGKYNLTVAGELRFKRIQDSIATNPNFSFVDFRFFTAYGETTFPANLFVDGRRDDGQLDMDAARSFFQFSRMPDDFFRAPSPRSGTGVEVVVQAHPMQPGRNVGKINSYTVDPTSSDFSTPCLMYEKFVNITVKSLYPNPTVQLRKALNTNLDFLFQGLSNLCTQVFPYGRD",–,–,–,–,–,–,4920 ± 450 µM,151 ± 4 s⁻¹,31000 ± 3000 M⁻¹ s⁻¹,15 ± 2 µM,250 ± 11 s⁻¹,1.67e+07 ± 2.34e+06 M⁻¹ s⁻¹,376 ± 40 µM,367 ± 16 s⁻¹,976000 ± 112000 M⁻¹ s⁻¹
